Results on 9 molecules are retold here after US20210324075A1 (ARCH ONCOLOGY, published 2021).

In one experiment the target is T1, rat CD47 (rat, UniProt P97829 19-303).
T1 construct: whole, on cells; also called CD47 on rat RBCs
T1 sequence (looked up): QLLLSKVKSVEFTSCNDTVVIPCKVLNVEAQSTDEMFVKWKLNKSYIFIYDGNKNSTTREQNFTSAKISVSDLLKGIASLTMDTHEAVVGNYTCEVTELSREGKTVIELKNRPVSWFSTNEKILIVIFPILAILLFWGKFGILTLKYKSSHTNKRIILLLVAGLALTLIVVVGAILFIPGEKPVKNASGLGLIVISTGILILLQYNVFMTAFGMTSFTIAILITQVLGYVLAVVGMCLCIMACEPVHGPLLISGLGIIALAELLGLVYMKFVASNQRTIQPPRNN
Kind of experiment: flow cytometry on rat RBCs, apparent affinity by non-linear fit of median fluorescence.

Another experiment has as its target T2, mouse CD47 (mouse, UniProt Q61735 19-303).
T2 construct: whole, on cells; also called CD47 on murine RBCs (mRBCs)
T2 sequence (looked up): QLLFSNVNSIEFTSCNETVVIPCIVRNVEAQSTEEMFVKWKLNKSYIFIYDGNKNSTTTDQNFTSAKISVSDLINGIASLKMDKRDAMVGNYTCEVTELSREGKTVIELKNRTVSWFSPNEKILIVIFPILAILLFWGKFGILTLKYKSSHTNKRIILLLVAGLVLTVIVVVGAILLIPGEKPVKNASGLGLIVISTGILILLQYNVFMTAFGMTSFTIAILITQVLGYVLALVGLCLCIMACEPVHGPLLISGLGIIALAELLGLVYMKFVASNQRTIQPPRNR
Nature of the experiment: flow cytometry on mouse RBCs, apparent affinity by non-linear fit of median fluorescence. The procedure: (§1) Binding activities of murine mAbs to mouse CD47 on murine RBCs (mRBCs) and human CD47 on human RBCs (hRBCs) were determined using flow cytometry. RBCs were incubated for 60 min on at 37° C. with various concentrations of the chimeric or humanized antibodies in a solution of phosphate buffered saline, pH 7.2, 2.5 mM EDT A (PBS+E). Cells were then washed with cold PBS+E and incubated for an additional hour on ice with a FITC labeled goat-anti-mouse antibody (Jackson Immuno Research Labs, West Grove, Pa.) in PBS +E. Cells were washed with PBS+E, antibody binding analyzed using a C6 Accuri How Cytometer (Becton Dickinson) and apparent binding affinities determined by non-linear fit (Prism GraphPad software) of the median fluorescence intensities at the various antibody concentrations.

In experiment [1] the target is T3, human CD47 (human, UniProt Q08722 19-292).
T3 construct: On human RBCs, on OV10 cells transfected with human CD47 (OV10-hCD47) and on Jurkat T cells; also called hCD47; integrin-associated protein (IAP)
T3 sequence (Q08722 other isoform, or with tags, fused parts or gaps limits assumed): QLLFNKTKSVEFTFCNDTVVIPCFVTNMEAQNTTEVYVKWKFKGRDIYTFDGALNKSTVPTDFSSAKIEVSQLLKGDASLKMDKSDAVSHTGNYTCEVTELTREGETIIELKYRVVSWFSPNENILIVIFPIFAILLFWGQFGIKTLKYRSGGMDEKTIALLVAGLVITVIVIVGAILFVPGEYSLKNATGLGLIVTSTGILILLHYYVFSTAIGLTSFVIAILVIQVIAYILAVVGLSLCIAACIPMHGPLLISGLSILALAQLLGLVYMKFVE
Kind of experiment: flow cytometry on human RBCs, apparent affinity by non-linear fit of median fluorescence. How it is done:
as §1

A further experiment has as its target T4, dog CD47 (dog).
T4 construct: whole, on cells; also called CD47 on dog RBCs
Nature of the experiment: flow cytometry on dog RBCs, apparent affinity by non-linear fit of median fluorescence.

A further experiment concerns the target T5, pig CD47 (pig, UniProt Q9GKE8 19-303).
T5 construct: whole, on cells; also called CD47 on pig RBCs
T5 sequence (looked up): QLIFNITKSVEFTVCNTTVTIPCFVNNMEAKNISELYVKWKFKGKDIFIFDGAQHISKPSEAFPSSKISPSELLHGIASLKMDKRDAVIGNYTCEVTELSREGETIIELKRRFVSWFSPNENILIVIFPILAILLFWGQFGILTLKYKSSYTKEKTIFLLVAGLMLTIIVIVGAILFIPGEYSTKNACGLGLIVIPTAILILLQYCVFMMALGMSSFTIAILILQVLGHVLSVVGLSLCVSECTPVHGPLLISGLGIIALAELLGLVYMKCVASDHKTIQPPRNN
Nature of the experiment: flow cytometry on pig RBCs, apparent affinity by non-linear fit of median fluorescence.

The target in experiment [2] is T3, human CD47. Nature of the experiment: flow cytometry on human RBCs and cell-based ELISA on OV10-hCD47 cells. How it is done: as §1, with “humanized” for “murine”, “to” for “to mouse CD47 on murine RBCs (mRBCs) and”, “RBCs” for “RBCs (hRBCs)”, “donkey-anti-human” for “goat-anti-mouse”, “PBS+E.” for “PBS +E.”, “Flow” for “How”
Binding activities of humanized mAbs were determined using a cell-based ELISA assay with human OVIO-hCD47 cells expressing cell surface human CD47. OVIO hCD47 cells were grown in IMDM medium containing 10% heat inactivated fetal bovine serum (BioWest; S01520). […] Reactions were terminated by the addition of HCl to 0.7N, and absorbance at 450 nm is determined using a Tecan model Infinite M200 plate reader. The apparent binding affinities of these clones to human OVIO-hCD47 cells was determined by non-linear fit (Prism GraphPad software).

Experiment [3] has as its target T3, human CD47. Nature of the experiment: cell-based ELISA on OV10-hCD47 tumor cells, apparent affinity. How it is done:
Binding activities of humanized mAbs were determined using a cell-based ELISA assay with human OVIO-hCD47 cells expressing cell surface human CD47. OVIO hCD47 cells were grown in IMDM medium containing 10% heat inactivated fetal bovine serum (BioWest; S01520). One day before assay, 3×10⁴ cells were plated in 96 well cell bind plates (Corning #3300, VWR #66025-626) and were 95-100% confluent at the time of assay. Cells were washed, and various concentrations of purified antibodies added in IMDM 37° C. for 1 hr in 95%02 I 5% CO₂. Cells were then washed with media and incubated for an additional hour at 37° C. with HRP labeled secondary anti-human antibody (Promega) diluted 1/2500 in media. Cells were washed three times with PBS, and the peroxidase substrate 3,3′, 5,5′-tetramethylbenzidine is added (Sigma; Catalog #T4444). Reactions were terminated by the addition of HCl to 0.7N, and absorbance at 450 nm is determined using a Tecan model Infinite M200 plate reader. The apparent binding affinities of these clones to human OVIO-hCD47 cells was determined by non-linear fit (Prism GraphPad software).

Experiment [4] addresses T3, human CD47. Nature of the experiment: flow cytometry on human RBCs, apparent affinity. The procedure: as §1, with “humanized” for “murine”, “to” for “to mouse CD47 on murine RBCs (mRBCs) and”, “RBCs” for “RBCs (hRBCs)”, “donkey-anti-human” for “goat-anti-mouse”, “PBS+E.” for “PBS +E.”, “Flow” for “How”

Residue numbers refer to the chain shown, from its start. Names and notes keep the numbering of the source.

B1: Vx10 (antibody, V domains shown)
VH: QVQLQQSGAELAKPGASVKMSCKASGYTFTNYWIHWIKQRPGQGLEWIGYIDPNTVYTDYNQRFEDKATLTADKSSNTAYMQLNSLTSEDSAVYYCSRGGKRGVDSWGQGTSVTVSS
VL: DVVMTQTPLSLPVSLGDQASISCRSSQSLENSNGDTYLNWYLQKPGQSPQLLIYRVSNRFSGVLDRFSGSGSGTDFTLQISRVEAEDLGVYFCLQVSHVPWTFGGGTNLEIK
notes: Murine mAb; also called murine anti-CD47 mAb Vx10
On to B1, for which the Kd with rat CD47 was found to be 0.179 nM; with mouse CD47, 0.031 nM; with human CD47 [1], 0.459 nM; with dog CD47, 0.714 nM; with pig CD47 it was 0.123 nM.

B2: Vx11 (antibody, V domains shown)
VH: EVQLQQSGAQLVKPGTSMKLSCKASGYTFTNYFLYWVKQRPGQGLEWIGDINPNAGSTNLNERFKSKATLTVDKSSSTAYLQLSGLTSEDSAVYYCTRGGYTMDYWGQGTSVTVSS
VL: B1 VL
notes: Murine mAb; also called murine anti-CD47 mAb Vx11
Consider B2, for which the Kd is 0.231 nM with rat CD47, 0.246 nM with mouse CD47, 0.091 nM with human CD47 [1] and less than 0.013 nM with dog CD47.

B3: humVx10_01_IgG4PE (antibody, V domains shown)
VH: QVQLVQSGAEVKKPGASVQVSCKASGYTFTNYWIHWLRQAPGQGLEWMGYIDPNTVYTDYNQRFEDRVTMTSDTSISTAYMELSSLRSDDTAVYYCARGGKRGVDSWGQATLVTVSS
VL: DIVMTQSPLSLPVTPGEPASISCRSSQSLENSNGDTYLNWYLQKPGQSPRLLIYRVSNRFSGVPDRFSGSGSGTDFTLKISRVEADDVGIYYCLQVSHVPWTFGQGTKLEIKR
notes: Humanized full length IgG4 PE, human kappa
B3: the binding result in the experiment with human CD47 [2] is “binds”.

B4: Vx10_mh_IgG1N297Q (antibody)
heavy: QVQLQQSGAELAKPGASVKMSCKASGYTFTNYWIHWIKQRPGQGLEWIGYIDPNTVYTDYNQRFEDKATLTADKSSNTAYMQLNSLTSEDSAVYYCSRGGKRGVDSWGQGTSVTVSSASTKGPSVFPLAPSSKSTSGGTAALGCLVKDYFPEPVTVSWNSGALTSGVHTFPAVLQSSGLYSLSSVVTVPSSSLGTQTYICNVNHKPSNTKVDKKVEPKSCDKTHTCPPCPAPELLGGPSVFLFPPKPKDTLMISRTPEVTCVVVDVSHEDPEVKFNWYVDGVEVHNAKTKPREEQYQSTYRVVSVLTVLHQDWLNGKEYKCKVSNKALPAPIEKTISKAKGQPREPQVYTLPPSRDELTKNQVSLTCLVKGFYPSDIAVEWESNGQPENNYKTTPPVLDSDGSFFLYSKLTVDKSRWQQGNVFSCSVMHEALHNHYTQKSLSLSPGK
light: DVVMTQTPLSLPVSLGDQASISCRSSQSLENSNGDTYLNWYLQKPGQSPQLLIYRVSNRFSGVLDRFSGSGSGTDFTLQISRVEAEDLGVYFCLQVSHVPWTFGGGTNLEIKRTVAAPSVFIFPPSDEQLKSGTASVVCLLNNFYPREAKVQWKVDNALQSGNSQESVTEQDSKDSTYSLSSTLTLSKADYEKHKVYACEVTHQGLSSPVTKSFNRGEC
notes: Mouse-human chimeric full length IgG, human IgG1-N297Q and human kappa, made in CHO cells; also called chimeric Vx10 IgG1 N297Q
With B4, the Kd stood at 0.087 nM with human CD47 [3] and 0.04 nM in the experiment with human CD47 [4].

B5: Vx10_mh_IgG4PE (antibody)
heavy: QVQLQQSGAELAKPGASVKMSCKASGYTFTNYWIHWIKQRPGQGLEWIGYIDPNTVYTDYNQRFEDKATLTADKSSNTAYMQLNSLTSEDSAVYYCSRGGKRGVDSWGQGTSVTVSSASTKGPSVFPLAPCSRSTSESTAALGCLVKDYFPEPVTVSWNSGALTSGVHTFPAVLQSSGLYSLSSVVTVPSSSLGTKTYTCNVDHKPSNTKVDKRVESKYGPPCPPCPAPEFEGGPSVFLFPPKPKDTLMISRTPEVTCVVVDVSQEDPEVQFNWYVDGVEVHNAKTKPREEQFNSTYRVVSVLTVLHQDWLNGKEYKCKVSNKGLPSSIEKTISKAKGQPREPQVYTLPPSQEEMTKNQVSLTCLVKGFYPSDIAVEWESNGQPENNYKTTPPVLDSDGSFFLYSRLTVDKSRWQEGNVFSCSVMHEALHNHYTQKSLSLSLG
light: B4 light
notes: Mouse-human chimeric full length IgG, human IgG4 PE and human kappa, made in CHO cells; also called chimeric Vx10 IgG4PE
In the case of B5, the Kd with human CD47 [3] stood at 0.091 nM; with human CD47 [4], 0.048 nM.

B6: Vx12 (antibody, V domains shown)
VH: B2 VH with E1Q, Q5L
VL: DVVMTQIPLSLPVSLGDQASISCRSSQSLVHSNGNTYLHWYLQKPGQSPKLLIYKVSNRFSGVPDRFSGSGSGTDFTLKISRVEAEDLGVYFCSQSTHVPRTFGGGTKLEIK
notes: Murine mAb; also called murine anti-CD47 mAb Vx12
For B6, the Kd with mouse CD47 is less than 0.013 nM; with human CD47 [1] it was 0.384 nM; with dog CD47 it was 0.101 nM; in the experiment with pig CD47, 0.06 nM.

B7: Vx12_mh_IgG1N297Q (antibody)
heavy: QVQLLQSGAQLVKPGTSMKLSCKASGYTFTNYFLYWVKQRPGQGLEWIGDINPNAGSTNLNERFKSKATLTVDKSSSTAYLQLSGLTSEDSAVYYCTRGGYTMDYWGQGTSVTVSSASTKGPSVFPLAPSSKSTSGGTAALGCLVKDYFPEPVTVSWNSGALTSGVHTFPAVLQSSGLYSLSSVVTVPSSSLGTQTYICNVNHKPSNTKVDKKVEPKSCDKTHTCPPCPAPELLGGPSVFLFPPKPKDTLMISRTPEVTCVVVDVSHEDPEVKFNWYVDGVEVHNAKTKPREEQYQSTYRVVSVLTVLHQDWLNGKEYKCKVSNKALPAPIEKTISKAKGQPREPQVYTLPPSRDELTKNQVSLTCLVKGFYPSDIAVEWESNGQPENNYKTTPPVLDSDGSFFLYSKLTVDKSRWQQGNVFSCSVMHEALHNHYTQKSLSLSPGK
light: DVVMTQIPLSLPVSLGDQASISCRSSQSLVHSNGNTYLHWYLQKPGQSPKLLIYKVSNRFSGVPDRFSGSGSGTDFTLKISRVEAEDLGVYFCSQSTHVPRTFGGGTKLEIKRTVAAPSVFIFPPSDEQLKSGTASVVCLLNNFYPREAKVQWKVDNALQSGNSQESVTEQDSKDSTYSLSSTLTLSKADYEKHKVYACEVTHQGLSSPVTKSFNRGEC
notes: Mouse-human chimeric full length IgG, human IgG1-N297Q and human kappa, made in CHO cells; also called chimeric Vx12 IgG1 N297Q
Take B7: the values for the Kd with human CD47 [3] and with human CD47 [4] were 0.069 nM and 0.09 nM, respectively.

B8: Vx12_mh_IgG4PE (antibody)
heavy: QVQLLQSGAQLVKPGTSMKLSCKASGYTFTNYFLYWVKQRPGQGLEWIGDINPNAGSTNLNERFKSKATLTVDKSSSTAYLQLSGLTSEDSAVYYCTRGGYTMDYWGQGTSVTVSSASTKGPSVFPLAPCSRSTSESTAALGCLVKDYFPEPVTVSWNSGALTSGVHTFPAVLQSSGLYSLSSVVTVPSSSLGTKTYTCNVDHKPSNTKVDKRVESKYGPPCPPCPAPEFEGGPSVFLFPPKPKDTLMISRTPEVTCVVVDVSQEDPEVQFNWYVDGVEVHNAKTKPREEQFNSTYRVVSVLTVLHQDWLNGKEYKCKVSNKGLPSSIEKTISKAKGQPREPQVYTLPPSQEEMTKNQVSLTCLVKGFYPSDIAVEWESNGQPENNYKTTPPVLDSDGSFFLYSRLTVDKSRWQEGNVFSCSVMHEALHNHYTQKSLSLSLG
light: B7 light
notes: Mouse-human chimeric full length IgG, human IgG4 PE and human kappa, made in CHO cells; also called chimeric Vx12 IgG4PE
For the molecule B8, the values for the Kd in the experiment with human CD47 [3] and with human CD47 [4] were 0.07 nM and 0.12 nM, respectively.

B9: Vx13 (antibody, V domains shown)
VH: EVQLQQSGPEVVKPGASVRISCKASDYTFTNYYIHWVRQRPGQGLEWIGWIYPGNNNNKYNEKFKGKATLTEDTSSSTAYMQLSSLTSEDSAVYFCARGGYTMDYWGQG
VL: DVLMTQTPLSLPVSLGDQASISCRSSQSLVHSNGNTYLHWYLQKPGQSPNLLIYKVSNRFSGVPDRFSGSGSGTDFTLKINRVETEDLGIYFCSQSTHVLTFGAG
notes: Murine mAb; also called murine anti-CD47 mAb Vx13
As to B9, the values for the Kd with human CD47 [1], with dog CD47 and with pig CD47 were 0.874 nM, 1.62 nM and 0.102 nM, respectively.
